Measurements: patent US20190225687A1 (I MAB, published 2019)

T1: LAG3 antigen of the Octet RED96 runs (UniProt P18627 23-450, limits assumed)
T1 sequence (looked up): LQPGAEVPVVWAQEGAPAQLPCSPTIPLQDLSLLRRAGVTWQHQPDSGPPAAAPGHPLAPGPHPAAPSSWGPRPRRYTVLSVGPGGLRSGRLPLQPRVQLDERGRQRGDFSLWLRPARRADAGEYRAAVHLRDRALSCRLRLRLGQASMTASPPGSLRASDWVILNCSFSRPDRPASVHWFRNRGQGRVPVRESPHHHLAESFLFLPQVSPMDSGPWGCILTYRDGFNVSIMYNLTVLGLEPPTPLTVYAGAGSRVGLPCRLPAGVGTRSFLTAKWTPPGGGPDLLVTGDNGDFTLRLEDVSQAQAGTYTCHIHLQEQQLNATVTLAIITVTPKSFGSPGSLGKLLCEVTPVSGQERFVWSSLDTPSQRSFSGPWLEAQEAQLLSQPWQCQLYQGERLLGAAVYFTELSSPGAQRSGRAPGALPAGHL

T2: human LAG3 of the LAG3 and MHC II binding assay kit (Cisbio, 64ICP03PEG) (human, UniProt P18627 23-450, limits assumed)
T2 construct: Bought kit reagent
T2 sequence (looked up): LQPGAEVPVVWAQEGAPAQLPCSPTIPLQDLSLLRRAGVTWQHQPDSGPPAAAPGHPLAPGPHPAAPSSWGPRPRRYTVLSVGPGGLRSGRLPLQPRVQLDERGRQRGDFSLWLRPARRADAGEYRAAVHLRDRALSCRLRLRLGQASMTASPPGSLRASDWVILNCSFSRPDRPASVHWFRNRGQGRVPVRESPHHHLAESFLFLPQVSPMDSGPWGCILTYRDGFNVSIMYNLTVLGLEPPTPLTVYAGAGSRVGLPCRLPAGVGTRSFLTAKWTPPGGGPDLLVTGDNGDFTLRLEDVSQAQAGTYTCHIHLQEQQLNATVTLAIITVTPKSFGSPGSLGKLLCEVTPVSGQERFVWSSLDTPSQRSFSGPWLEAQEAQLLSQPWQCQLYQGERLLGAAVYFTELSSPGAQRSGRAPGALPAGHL


Legend:
[1] = molecular target: T1, LAG3 antigen of the Octet RED96 runs; experiment: BLI, Octet RED96, full kinetics, antigen 3.125-50 nM
Protocol: The binding affinity was calculated by software in Octet® RED96 System.

[2] = molecular target: T2, human LAG3 of the LAG3 and MHC II …; experiment: TR-FRET LAG3/MHC II binding assay (Cisbio); blocks MHC II
Protocol: To measure the ability of anti-LAG3 monoclonal antibodies to block the interaction between human LAG3 and MHCII, the LAG3 and MHC II binding assay (Cisbio, 64ICP03PEG) were performed utilizing homogeneous TR-FRET technology, following the protocol provided by the kit manufacturer. Anti-human LAG3 antibodies were 3-fold diluted ranging from 100 nM to 5 pM (10 points). Fluorescence data was acquired on a PerkinElmer Envision plate reader and a four-parameter dose-response curve was fitted to obtain IC50 of each antibody.

IC50 [2] | Binder | further results
 | 147H-6 (antibody, V domains shown) VH: QVQLVQSGAEVKKPGASVKVSCKASGYTFTNYWLGWIKQAPGQGLEWIGDIYPGGDYINYNEKFKGKATLTADTSISTAYMELSRLRSDDTAVYYCARPNLPGDYWGQGTTVTVSS VL: DIVMTQSPLSLPVTPGEPASISCRSSKSLLHSNGITYLYWYLQKPGQSPQLLIYQVSNLASGVPDRFSGSGSGTDFTLKISRVEAEDVGVYYCAQNLELPWTFGGGTKVEIK | Kd [1]: 26.5 nM; koff [1]: 0.00312 s⁻¹; kon [1]: 118000 M⁻¹ s⁻¹
2.2 to 7.6 nM | 147H-13 (antibody, V domains shown, also called 147H4-13) VH: EVQLVQSGAEVKKPGASVKVSCKASGYTFTNYWLGWIKQAPGQGLEWIGDIYPGGDYINYNEKFKGKATLTADTSISTAYMELSRLRSDDTAVYYCARPNLPGDYWGQGTTVTVSS VL: DIVMTQSPLSLPVTPGEPASISCRSSKSLLHSNGITYLYWYLQKPGQSPQLLIYQVSNLASGVPDRFSGSGSGTDFTLKISRVEAEDVGVYYCAQNLELPWTFGGGTKVEIK | 
0.59 nM | 147H 3811 (antibody, V domains shown) VH: EVQLVQSGAEVKKPGASVKVSCKASGYLFTNYWLGWIKQAPGQGLEWIGDIYPGGDYIVYNEKFKGKATLTADTSISTAYMELSRLRSDDTAVYYCARPNLPKDHWGQGTTVTVSS VL: DIVMTQSPLSLPVTPGEPASISCRSSKSLLHSNAITYLYWYLQKPGQSPQLLIYQVSNLATGVPDRFSGSGSGTDFTLKISRVEAEDVGVYYCGQYLELPWTFGGGTKVEIK | 
0.73 nM | 147H 3792 (antibody, V domains shown) VH: EVQLVQSGAEVKKPGASVKVSCKASGYTFTNYWLGWIKQAPGQGLEWIGDIYPGGDYIVYNEKFKGKATLTADTSISTAYMELSRLRSDDTAVYYCARPNLPGDYWGQGTTVTVSS VL: DIVMTQSPLSLPVTPGEPASISCRSSKSLLHSNAITYLYWYLQKPGQSPQLLIYQVSNLASGVPDRFSGSGSGTDFTLKISRVEAEDVGVYYCAQYLELPWTFGGGTKVEIK | 
0.44 nM | 147H 3549 (antibody, V domains shown) VH: EVQLVQSGAEVKKPGASVKVSCKASGYTFTNYWLGWIKQAPGQGLEWIGDIYPGGDYINYNEKFKGKATLTADTSISTAYMELSRLRSDDTAVYYCARPNLPKDHWGQGTTVTVSS VL: DIVMTQSPLSLPVTPGEPASISCRSSKSLLHSNAITYLYWYLQKPGQSPQLLIYQVSNLASGVPDRFSGSGSGTDFTLKISRVEAEDVGVYYCAQYLEEPWTFGGGTKVEIK | 
0.31 nM | 147H 3807 (antibody, V domains shown, also called B3807) VH: EVQLVQSGAEVKKPGASVKVSCKASGYTFTNYWLGWIKQAPGQGLEWIGDIYPGGDYIVYNEKFKGKATLTADTSISTAYMELSRLRSDDTAVYYCARPNLPKDHWGQGTTVTVSS VL: DIVMTQSPLSLPVTPGEPASISCRSSKSLLHSNAITYLYWYLQKPGQSPQLLIYQVSNLASGVPDRFSGSGSGTDFTLKISRVEAEDVGVYYCAQYLELPWTFGGGTKVEIK | 
1.2 nM | 147H 3669 (antibody, V domains shown) VH: EVQLVQSGAEVKKPGASVKVSCKASGYLFTNYWLGWIKQAPGQGLEWIGDIYPGGDYIVYNEKFKGKATLTADTSISTAYMELSRLRSDDTAVYYCARPNLPGDYWGQGTTVTVSS VL: DIVMTQSPLSLPVTPGEPASISCRSSKSLLHSNAITYLYWYLQKPGQSPQLLIYQVSNLASGVPDRFSGSGSGTDFTLKISRVEAEDVGVYYCAQNLELPWTFGGGTKVEIK | 
0.96 nM | 147H 3809 (antibody, V domains shown) VH: EVQLVQSGAEVKKPGASVKVSCKASGYLFTNYWLGWIKQAPGQGLEWIGDIYPGGDYIVYNEKFKGKATLTADTSISTAYMELSRLRSDDTAVYYCARPNLPKDHWGQGTTVTVSS VL: DIVMTQSPLSLPVTPGEPASISCRSSKSLLHSNAITYLYWYLQKPGQSPQLLIYQVSNLASGVPDRFSGSGSGTDFTLKISRVEAEDVGVYYCAQYLELPWTFGGGTKVEIK | 
0.63 nM | 147H 3810 (antibody, V domains shown, also called B3810) VH: EVQLVQSGAEVKKPGASVKVSCKASGYLFTNYWLGWIKQAPGQGLEWIGDIYPGGDYIVYNEKFKGKATLTADTSISTAYMELSRLRSDDTAVYYCARPNLPKDHWGQGTTVTVSS VL: DIVMTQSPLSLPVTPGEPASISCRSSKSLLHSNAITYLYWYLQKPGQSPQLLIYQVSNLATGVPDRFSGSGSGTDFTLKISRVEAEDVGVYYCAQYLELPWTFGGGTKVEIK | 
0.39 nM | 147H 3550 (antibody, V domains shown) VH: EVQLVQSGAEVKKPGASVKVSCKASGYTFTNYWLGWIKQAPGQGLEWIGDIYPGGDYINYNEKFKGKATLTADTSISTAYMELSRLRSDDTAVYYCARPNLPKDHWGQGTTVTVSS VL: DIVMTQSPLSLPVTPGEPASISCRSSKSLLHSNAITYLYWYLQKPGQSPQLLIYQVSNLASGVPDRFSGSGSGTDFTLKISRVEAEDVGVYYCAQYLELPWTFGGGTKVEIK | 
0.55 nM | 147H 3508 (antibody, V domains shown) VH: EVQLVQSGAEVKKPGASVKVSCKASGYTFTNYWLGWIKQAPGQGLEWIGDIYPGGDYINYNEKFKGKATLTADTSISTAYMELSRLRSDDTAVYYCARPNLPKDHWGQGTTVTVSS VL: DIVMTQSPLSLPVTPGEPASISCRSSKSLLHSNAITYLYWYLQKPGQSPQLLIYQVSNLASGVPDRFSGSGSGTDFTLKISRVEAEDVGVYYCGQNLELPWTFGGGTKVEIK | 
0.63 nM | 147H 3794 (antibody, V domains shown) VH: EVQLVQSGAEVKKPGASVKVSCKASGYLFTNYWLGWIKQAPGQGLEWIGDIYPGGDYIVYNEKFKGKATLTADTSISTAYMELSRLRSDDTAVYYCARPNLPGDYWGQGTTVTVSS VL: DIVMTQSPLSLPVTPGEPASISCRSSKSLLHSNAITYLYWYLQKPGQSPQLLIYQVSNLASGVPDRFSGSGSGTDFTLKISRVEAEDVGVYYCAQYLELPWTFGGGTKVEIK | 
0.9 nM | 147H 3668 (antibody, V domains shown) VH: EVQLVQSGAEVKKPGASVKVSCKASGYTFTNYWLGWIKQAPGQGLEWIGDIYPGGDYIVYNEKFKGKATLTADTSISTAYMELSRLRSDDTAVYYCARPNLPGDYWGQGTTVTVSS VL: DIVMTQSPLSLPVTPGEPASISCRSSKSLLHSNAITYLYWYLQKPGQSPQLLIYQVSNLATGVPDRFSGSGSGTDFTLKISRVEAEDVGVYYCAQNLELPWTFGGGTKVEIK | 
1.5 nM | 147H 3421 (antibody, V domains shown) VH: EVQLVQSGAEVKKPGASVKVSCKASGYTFTNYWLGWIKQAPGQGLEWIGDIYPGGDYINYNEKFKGKATLTADTSISTAYMELSRLRSDDTAVYYCARPNLPKDHWGQGTTVTVSS VL: DIVMTQSPLSLPVTPGEPASISCRSSKSLLHSNAITYLYWYLQKPGQSPQLLIYQVSNLASGVPDRFSGSGSGTDFTLKISRVEAEDVGVYYCAQNLELPWTFGGGTKVEIK | 
2.7 nM | 147H 3663 (antibody, V domains shown) VH: EVQLVQSGAEVKKPGASVKVSCKASGYTFENYWLGWIKQAPGQGLEWIGDIYPGGDYIVYNEKFKGKATLTADTSISTAYMELSRLRSDDTAVYYCARPNLPGDYWGQGTTVTVSS VL: DIVMTQSPLSLPVTPGEPASISCRSSKSLLHSNAITYLYWYLQKPGQSPQLLIYQVSNLARGVPDRFSGSGSGTDFTLKISRVEAEDVGVYYCAQNLELPWTFGGGTKVEIK | 
0.5 nM | 147H 3808 (antibody, V domains shown) VH: EVQLVQSGAEVKKPGASVKVSCKASGYTFTNYWLGWIKQAPGQGLEWIGDIYPGGDYIVYNEKFKGKATLTADTSISTAYMELSRLRSDDTAVYYCARPNLPKDHWGQGTTVTVSS VL: DIVMTQSPLSLPVTPGEPASISCRSSKSLLHSNAITYLYWYLQKPGQSPQLLIYQVSNLASGVPDRFSGSGSGTDFTLKISRVEAEDVGVYYCGQYLELPWTFGGGTKVEIK | 
